From patent US20090075925A1 (published 2009)

B1: HA epitope-tagged APOBEC-1 stably expressed in McArdle RH7777 cells (enzyme, UniProt P38483 1-229, looked up, not shown: small tags and cut ends)
chain: MSSETGPVAVDPTLRRRIEPHEFEVFFDPRELRKETCLLYEINWGGRHSIWRHTSQNTNKHVEVNFIEKFTTERYFCPNTRCSITWFLSWSPCGECSRAITEFLSRYPHVTLFIYIARLYHHADPRNRQGLRDLISSGVTIQIMTEQESGYCWRNFVNYSPSNEAHWPRYPHLWVRLYVLELYCIILGLPPCLNILRRKQPQLTFFTIALQSCHYQRLPPHILWATGLK
notes: also called HA-tagged APOBEC-1
B2: ACF of nuclear extract treated with calf intestinal alkaline phosphatase (CIAP) (other, rat, UniProt Q923K9-2 1-586, looked up)
chain: MESNHKSGDGLSGTQKEAALRALVQRTGYSLVQENGQRKYGGPPPGWDTTPPERGCEIFIGKLPRDLFEDELIPLCEKIGKIYEMRMMMDFNGNNRGYAFVTFSNKQEAKNAIKQLNNYEIRNGRLLGVCASVDNCRLFVGGIPKTKKREEILSEMKKVTEGVVDVIVYPSAADKTKNRGFAFVEYESHRAAAMARRRLLPGRIQLWGHPIAVDWAEPEVEVDEDTMSSVKILYVRNLMLSTSEEMIEKEFNSIKPGAVERVKKIRDYAFVHFSNREDAVEAMKALNGKVLDGSPIEVTLAKPVDKDSYVRYTRGTGGRNTMLQEYTYPLSHVYDPTTTYLGAPVFYTPQAYAAIPSLHFPATKGHLSNRALIRTPSVRGAAGVRGLGGRGYLAYTGLGRGYQVKGDKRQDKLYDLLPGMELTPMNTISLKPQGVKLAPQILEEICQKNNWGQPVYQLHSAIGQDQRQLFLYKVTIPALASQNPAIHPFTPPKLSAYVDEAKRYAAEHTLQTLGIPTEGGDAGTTAPTATSATVFPGYAVPSATAPVSTAQLKQAVTLGQDLAAYTTYEVYPTFAVTTRGDGYGTF
modifications: phosphates removed by CIAP treatment of the extract

Tests used:
[1] = biological target: B2; experiment: co-immunoprecipitation with ACF CT antibody from CIAP-treated McArdle nuclear extract, anti-HA western blot, densitometry (FIG. 2A)
[2] = biological target: T1, rat APOBEC-1 (endogenous, rat liver nuclear extract and McArdle cells) (rat); experiment: cell-based or functional assay
T1 sequence (P38483 1-229, looked up): B1 chain

Row | Binder | fold reduction of APOBEC-1 recovered with immunoprecipitated ACF (CIAP-treated against control nuclear extract) [1] | fold decrease in in vitro ApoB mRNA editing activity of CIAP-treated nuclear extract (poisoned-primer extension) [2]
1 | B1 | 3 fold | 
2 | B2 |  | 2.5 fold
